For 1 molecule, 生物活性 (Binding elisa, % relative to the reference), 活性 (Binding elisa, % relative to the reference) and 结合活性 (Binding elisa, % relative to the reference) results are on record in patent publication CN107773755A.

The target of assay [1] is 抗体BA03-A. Put plainly: binding ELISA on coated BA03-A, relative activity vs reference; formulations F1-F11 at T0. For orientation: ELISA stands for enzyme-linked immunosorbent assay.
In assay [2] the target is 抗体BA03-A. Put plainly: binding ELISA on coated BA03-A, relative activity vs reference; formulation F8 after 8 weeks at 40 C.
The target of assay [3] is 抗体BA03-A. Put plainly: binding ELISA on coated BA03-A, relative activity vs reference; formulations after 4 weeks at 40 C.
In assay [4] the target is 抗体BA03-A. Put plainly: binding ELISA on coated BA03-A, relative activity vs reference; formulation F7 after 8 weeks at 40 C.
For assay [5], the target named is 抗体BA03-A. Put plainly: binding ELISA on coated BA03-A, relative activity vs reference; formulation F3 after 8 weeks at 40 C.
For assay [6], the target named is 抗体BA03-A. The assay is described as follows: binding ELISA on coated BA03-A, relative activity vs reference; formulations after 8 weeks at 2-8 C.

B1: 抗体BA03 (重组人源化抗表皮生长因子受体单克隆抗体) (antibody, V domains shown)
VH: QVQLQESGPGLVKPSETLSLTCTVSGFSLSNYDVHWVRQAPGKGLEWLGVIWSGGNTDYNTPFTSRLTISVDTSKNQFSLKLSSVTAADTAVYYCARALDYYDYEFAYWGQGTLVTVSS
VL: EIVLTQSPDFQSVTPKEKVTITCRASQSIGTNIHWYQQKPDQSPKLLIKYASESISGIPSRFSGSGSGTDFTLTINSLEAEDAATYYCQQNNEWPTSFGQGTKLEIK
As for B1, the 生物活性 (Binding elisa, % relative to the reference) lay in the range of 97.1 to 105% with 抗体BA03-A [1] and 47.3 to 102% with 抗体BA03-A [3]. Moreover, the 活性 (Binding elisa, % relative to the reference) in the assay with 抗体BA03-A [2] was 91.7%; in the assay with 抗体BA03-A [4], 55.2%; in the assay with 抗体BA03-A [5] it was 89.7%. This molecule had a 结合活性 (Binding elisa, % relative to the reference) in the assay with 抗体BA03-A [6] of 93.3 to 111%.
